# Laboratory results published in patent publication US20230212319A1, “NOVEL ANTIGEN BINDING DOMAINS AND SYNTHETIC ANTIGEN RECEPTORS INCORPORATING THE SAME” (University of Southern California, priority 2020, published 2023).
# B1: 22116 (protein)
# chain: MALPVTALLLPLALLLHAARPQVQLVESGGGLVQPGGSLRLSCAASGFTFTNHAMSWVRQAPGKGLELVSSISGNGRTTYYADSVKGRFTISRDISKNTLDLQMNSLRAEDTAVYYCAKDGGETLVDSRGQGTLVTVSSLEIQNPDPAVYQLRDSKSSDKSVCLFTDFDSQTNVSQSKDSDVYITDKCVLDMRSMDFKSNSAVAWSNKSDFACANAFNNSIIPEDTFFPSSDVPCDVKLVEKSFETDTNLNFQNLSVIGFRILLLKVAGFNLLMTLRLWSSRAKRSGSGVKQTLNFDLLKLAGDVESNPGPTSTMALPVTALLLPLALLLHAARPQVQLVESGGGLVQPGGSLRLSCAASGFTFTNHAMSWVRQAPGKGLELVSSISGNGRTTYYADSVKGRFTISRDISKNTLDLQMNSLRAEDTAVYYCAKDGGETLVDSRGQGTLVTVSSLESGGGGSFEQVQLQQPGAELVKPGASVKMSCKASGYAFSSYWINWMKQKPGQGLEWIGQIYPGDGDTNYNGKFKGRATLTADTSSSTAYMQLSSLTSEDSAVYFCARSITTVVGCAMDYWGQGTSVTVSSTREDLKNVFPPEVAVFEPSKAEIAHTQKATLVCLATGFYPDHVELSWWVNGKEVHSGVCTDPQPLKEQPALNDSRYCLSSRLRVSATFWQNPRNHFRCQVQFYGLSENDEWTQDRAKPVTQIVSAEAWGRADCGITSASYHQGVLSATILYEILLGKATLYAVLVSALVLMAMVKRKDSRGRAKRSGSGATNFSLLKQAGDVEENPGPSRGHMTEYKPTVRLATRDDVPRAVRTLAAAFADYPATRHTVDPDRHIERVTELQELFLTRVGLDIGKVWVADDGAAVAVWTTPESVEAGAVFAEIGPRMAELSGSRLAAQQQMEGLLAPHRPKEPAWFLATVGVSPDHQGKGLGSAVVLPGVEAAERAGVPAFLETSAPRNLPFYERLGFTVTADVEVPEGPRTWCMTRKPGA
# B2: 22109 (protein)
# chain: MALPVTALLLPLALLLHAARPMLPAPKNLVVSRITEDSARLSWTAPDAAFDSFPIRYIETLIWGEAIWLDVPGSERSYDLTGLKPGTEYAVVITGVKGGRFSSPLVASFTTGTGGGGSGGGGSGGGGSEFDIQMTQSPSSLSASVGDRVTITCKASDHINNWLAWYQQKPGQAPKLLIYGATTLETGVPSRFSGSGSGTDYTLTISSLQPEDFATYYCQQSWNTPWTFGQGTKLEIKRLEDLKNVFPPEVAVFEPSEAEISHTQKATLVCLATGFYPDHVELSWWVNGKEVHSGVCTDPQPLKEQPALNDSRYCLSSRLRVSATFWQNPRNHFRCQVQFYGLSENDEWTQDRAKPVTQIVSAEAWGRADCGFTSESYQQGVLSATILYEILLGKATLYAVLVSALVLMAMVKRKDSRGRAKRSGSGATNFSLLKQAGDVEENPGPTSMDWIWRILFLVGAATGAHSFEQVQLQQPGAELVKPGASVKMSCKASGYAFSSYWINWMKQKPGQGLEWIGQIYPGDGDTNYNGKFKGRATLTADTSSSTAYMQLSSLTSEDSAVYFCARSITTVVGCAMDYWGQGTSVTVSSTRIQNPDPAVYQLRDSKSSDKSVCLFTDFDSQTNVSQSKDSDVYITDKCVLDMRSMDFKSNSAVAWSNKSDFACANAFNNSIIPEDTFFPSPESSCDVKLVEKSFETDTNLNFQNLSVIGFRILLLKVAGFNLLMTLRLWSSRAKRSGSGVKQTLNFDLLKLAGDVESNPGPSRGHMTEYKPTVRLATRDDVPRAVRTLAAAFADYPATRHTVDPDRHIERVTELQELFLTRVGLDIGKVWVADDGAAVAVWTTPESVEAGAVFAEIGPRMAELSGSRLAAQQQMEGLLAPHRPKEPAWFLATVGVSPDHQGKGLGSAVVLPGVEAAERAGVPAFLETSAPRNLPFYERLGFTVTADVEVPEGPRTWCMTRKPGA
# B3: 22130 (protein)
# chain: MALPVTALLLPLALLLHAARPACEVQLLESGGGLIQPGGSLRLSCAASGFTFSSHAMTWVRQAPGKGLEWVSAISGSGDYTHYADSVKGRFTISRDNSKNTVYLQMNSLRAEDSAVYYCAKDEDGGSLLGHRGQGTLVTVSSGTGGGGSGGGGSGGGGSEFDIQMTQSPSSLSASVGDRVTITCKASDHINNWLAWYQQKPGQAPKLLIYGATTLETGVPSRFSGSGSGTDYTLTISSLQPEDFATYYCQQSWNTPWTFGQGTKLEIKRLEDLKNVFPPEVAVFEPSKAEIAHTQKATLVCLATGFYPDHVELSWWVNGKEVHSGVCTDPQPLKEQPALNDSRYCLSSRLRVSATFWQNPRNHFRCQVQFYGLSENDEWTQDRAKPVTQIVSAEAWGRADCGITSASYHQGVLSATILYEILLGKATLYAVLVSALVLMAMVKRKDSRGRAKRSGSGATNFSLLKQAGDVEENPGPTSATMDWIWRILFLVGAATGAHSGPQVQLQESGGGLAQAGGSLRLSCAASGRTFSMGWFRQAPGKEREFVAAITYSGGSPYYASSVRGRFTISRDNAKNTVYLQMNSLKPEDTAVYYCAANPTYGSDWNAENWGQGTQVTVSSGSGGGGSGGGGSGGGGSFEQVQLQQPGAELVKPGASVKMSCKASGYAFSSYWINWMKQKPGQGLEWIGQIYPGDGDTNYNGKFKGRATLTADTSSSTAYMQLSSLTSEDSAVYFCARSITTVVGCAMDYWGQGTSVTVSSTRIQNPDPAVYQLRDSKSSDKSVCLFTDFDSQTNVSQSKDSDVYITDKCVLDMRSMDFKSNSAVAWSNKSDFACANAFNNSIIPEDTFFPSSDVPCDVKLVEKSFETDTNLNFQNLSVIGFRILLLKVAGFNLLMTLRLWSSRAKRSGSGVKQTLNFDLLKLAGDVESNPGPSRGHMTEYKPTVRLATRDDVPRAVRTLAAAFADYPATRHTVDPDRHIERVTELQELFLTRVGLDIGKVWVADDGAAVAVWTTPESVEAGAVFAEIGPRMAELSGSRLAAQQQMEGLLAPHRPKEPAWFLATVGVSPDHQGKGLGSAVVLPGVEAAERAGVPAFLETSAPRNLPFYERLGFTVTADVEVPEGPRTWCMTRKPGA
# B4: 22142 (protein)
# chain: MALPVTALLLPLALLLHAARPQVQLVESGGGLVQPGGSLRLSCAASGFTFTNHAMSWVRQAPGKGLELVSSISGNGRTTYYADSVKGRFTISRDISKNTLDLQMNSLRAEDTAVYYCAKDGGETLVDSRGQGTLVTVSSLEGGGGSGGGGSIEGGGGSGGGGSKVQLLESGGGLVQPGGSLRLSCAASGFIFSSYAMSWVRQAPGKGQEWVSGVSGTGVNTYYADSVKGRFTISRDNSKNTLYLQMNSLRAEDTAVYYCASGKGWDSGSWYEDYRGQGTLVTVSSGTGGGGSGGGGSGGGGSEFDIQMTQSPSSLSASVGDRVTITCKASDHINNWLAWYQQKPGQAPKLLIYGATTLETGVPSRFSGSGSGTDYTLTISSLQPEDFATYYCQQSWNTPWTFGQGTKLEIKRLEIQNPDPAVYQLRDSKSSDKSVCLFTDFDSQTNVSQSKDSDVYITDKCVLDMRSMDFKSNSAVAWSNKSDFACANAFNNSIIPEDTFFPSSDVPCDVKLVEKSFETDTNLNFQNLSVIGFRILLLKVAGFNLLMTLRLWSSRAKRSGSGVKQTLNFDLLKLAGDVESNPGPTSATMDWIWRILFLVGAATGAHSGPQVQLQESGGGLAQAGGSLRLSCAASGRTFSMGWFRQAPGKEREFVAAITYSGGSPYYASSVRGRFTISRDNAKNTVYLQMNSLKPEDTAVYYCAANPTYGSDWNAENWGQGTQVTVSSGSGGGGSGGGGSGGGGSFEQVQLQQPGAELVKPGASVKMSCKASGYAFSSYWINWMKQKPGQGLEWIGQIYPGDGDTNYNGKFKGRATLTADTSSSTAYMQLSSLTSEDSAVYFCARSITTVVGCAMDYWGQGTSVTVSSTREDLKNVFPPEVAVFEPSKAEIAHTQKATLVCLATGFYPDHVELSWWVNGKEVHSGVCTDPQPLKEQPALNDSRYCLSSRLRVSATFWQNPRNHFRCQVQFYGLSENDEWTQDRAKPVTQIVSAEAWGRADCGITSASYHQGVLSATILYEILLGKATLYAVLVSALVLMAMVKRKDSRGRAKRSGSGATNFSLLKQAGDVEENPGPSRGHMTEYKPTVRLATRDDVPRAVRTLAAAFADYPATRHTVDPDRHIERVTELQELFLTRVGLDIGKVWVADDGAAVAVWTTPESVEAGAVFAEIGPRMAELSGSRLAAQQQMEGLLAPHRPKEPAWFLATVGVSPDHQGKGLGSAVVLPGVEAAERAGVPAFLETSAPRNLPFYERLGFTVTADVEVPEGPRTWCMTRKPGA
# System: RAJI cells
# Test: JNG assay, co-culture with RAJI cells
# Type: cell-based
# Details: JNG cells expressing construct, co-culture with Raji
# Summary of the method: (§1)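 Jurkat-NFAT-GFP (JNG) cells stably expressing SAR constructs via lentiviral transduction and puromycin/blasticidin selection were cocultured with target cells at E:T ~1:2 for ~4–18 h. NFAT-driven GFP was measured by FACS versus parental JNG cells; scores +/- to 5+ denote ~5–50% GFP-positive cells.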
row,Molecule,NFAT-GFP ASSAY: Raji
1,B1,"3+ (refer to approximately 5%, 10%, 20%, 30%, 40% and 50% GFP positive cells)"
2,B2,"2+ (refer to approximately 5%, 10%, 20%, 30%, 40% and 50% GFP positive cells)"
3,B3,"4+ (refer to approximately 5%, 10%, 20%, 30%, 40% and 50% GFP positive cells)"
4,B4,"+ (refer to approximately 5%, 10%, 20%, 30%, 40% and 50% GFP positive cells)"

# System: RAJI-CD19-KO cells
# Test: JNG assay, co-culture with RAJI-CD19-KO cells
# Type: cell-based
# Details: co-culture with Raji-CD19-KO
# Summary of the method: as §1
row,Molecule,NFAT-GFP ASSAY: Raji-CD19-KO
1,B1,"2+ (refer to approximately 5%, 10%, 20%, 30%, 40% and 50% GFP positive cells)"
2,B2,"+/- (refer to approximately 5%, 10%, 20%, 30%, 40% and 50% GFP positive cells)"
3,B3,"5+ (refer to approximately 5%, 10%, 20%, 30%, 40% and 50% GFP positive cells)"
4,B4,"+ (refer to approximately 5%, 10%, 20%, 30%, 40% and 50% GFP positive cells)"

# System: L363 cells
# Test: JNG assay, co-culture with L363 cells
# Type: cell-based
# Details: co-culture with L363
# Summary of the method: as §1
row,Molecule,NFAT-GFP ASSAY: L363
1,B2,"+/- (refer to approximately 5%, 10%, 20%, 30%, 40% and 50% GFP positive cells)"
2,B3,"5+ (refer to approximately 5%, 10%, 20%, 30%, 40% and 50% GFP positive cells)"

# System: Nalm6 cells
# Test: JNG assay, co-culture with Nalm6 cells
# Type: cell-based
# Details: co-culture with Nalm6
# Summary of the method: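 Read-out: % GFP-positive cells by flow cytometry after ~4 to 18 h coculture of SAR-transduced JNG cells with targets (E:T about 1:2). Scores reflect GFP induction above parental JNG controls: +/- ≈5%, + ≈10%, up to 5+ ≈50%.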
row,Molecule,NFAT-GFP ASSAY: Nalm6
1,B1,"3+ (refer to approximately 5%, 10%, 20%, 30%, 40% and 50% GFP positive cells)"
2,B2,"2+ (refer to approximately 5%, 10%, 20%, 30%, 40% and 50% GFP positive cells)"
3,B4,"+ (refer to approximately 5%, 10%, 20%, 30%, 40% and 50% GFP positive cells)"

# System: RS;411
# Test: JNG assay, co-culture with RS;411 cells
# Type: cell-based
# Details: co-culture with RS411
# Summary of the method: as §1
row,Molecule,NFAT-GFP ASSAY: RS411
1,B1,"2+ (refer to approximately 5%, 10%, 20%, 30%, 40% and 50% GFP positive cells)"
2,B2,"4+ (refer to approximately 5%, 10%, 20%, 30%, 40% and 50% GFP positive cells)"
3,B3,"4+ (refer to approximately 5%, 10%, 20%, 30%, 40% and 50% GFP positive cells)"
4,B4,"+/- (refer to approximately 5%, 10%, 20%, 30%, 40% and 50% GFP positive cells)"
